Reference: patent publication US20190040132A1 (FRED HUTCHINSON CANCER RESEARCH CENTER, published 2019)

Target: T1, human ROR2 (human, UniProt Q01974 34-943)
T1 construct: also called K562 expressing human ROR2
Test: IHC on FFPE K562 cells transduced with human ROR2

T1 sequence (Q01974 34-943 limits assumed): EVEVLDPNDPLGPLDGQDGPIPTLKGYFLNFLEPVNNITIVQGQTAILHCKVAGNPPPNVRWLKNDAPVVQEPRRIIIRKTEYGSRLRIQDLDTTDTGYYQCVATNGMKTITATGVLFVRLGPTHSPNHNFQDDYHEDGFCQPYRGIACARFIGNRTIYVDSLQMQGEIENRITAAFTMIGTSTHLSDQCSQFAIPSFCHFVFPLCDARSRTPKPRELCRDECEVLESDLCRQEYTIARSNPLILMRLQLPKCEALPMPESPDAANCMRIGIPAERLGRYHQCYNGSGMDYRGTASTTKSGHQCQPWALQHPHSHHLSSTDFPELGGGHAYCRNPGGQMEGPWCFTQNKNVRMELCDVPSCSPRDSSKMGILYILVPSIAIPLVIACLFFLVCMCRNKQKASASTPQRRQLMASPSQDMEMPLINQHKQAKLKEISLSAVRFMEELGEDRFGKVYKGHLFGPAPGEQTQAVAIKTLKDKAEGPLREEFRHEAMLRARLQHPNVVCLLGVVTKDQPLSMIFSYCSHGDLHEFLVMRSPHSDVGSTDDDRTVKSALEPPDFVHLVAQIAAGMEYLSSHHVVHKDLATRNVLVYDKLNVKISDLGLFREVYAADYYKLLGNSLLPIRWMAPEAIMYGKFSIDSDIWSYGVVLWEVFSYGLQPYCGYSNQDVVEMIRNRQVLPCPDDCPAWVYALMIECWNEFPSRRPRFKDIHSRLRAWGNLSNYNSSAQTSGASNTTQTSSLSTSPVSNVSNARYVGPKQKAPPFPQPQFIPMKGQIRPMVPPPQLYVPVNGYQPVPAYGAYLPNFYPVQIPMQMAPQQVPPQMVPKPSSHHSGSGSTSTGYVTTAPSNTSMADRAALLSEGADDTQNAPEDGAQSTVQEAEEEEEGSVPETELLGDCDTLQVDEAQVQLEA

B1: anti-ROR1 monoclonal antibody 6D4 (antibody, V domains shown)
VH: SGPELVKPGTSVKMSCKASGYTFTDYYMNWVKQTHGKNLEWIGRVNPSNGNTDYNQKFKGKATLTVDKSLSTAYMQLSSLTSEDSAVYYCGRLAYWGQGSLVTVSA
VL: LTQSPASLAVSPGQRATISCKASQSVDYDGETYMNWYQQKSGQPPKLLIYAASNLESGIPARFSGSGSGTDFTLNIHPVEEEDAATYYCLQTLKNPYTFGGGTKLEIK
notes: Mouse monoclonal antibody from a hybridoma, used as supernatant or purified; also called mAb 6D4; clone 6D4
B1: no binding.
